Article PMC4504706, “Deinococcus radiodurans PriA is a Pseudohelicase”

T1: PriA (D. radiodurans) (Deinococcus radiodurans R1, UniProt P0DXX8 1-925)
T1 sequence: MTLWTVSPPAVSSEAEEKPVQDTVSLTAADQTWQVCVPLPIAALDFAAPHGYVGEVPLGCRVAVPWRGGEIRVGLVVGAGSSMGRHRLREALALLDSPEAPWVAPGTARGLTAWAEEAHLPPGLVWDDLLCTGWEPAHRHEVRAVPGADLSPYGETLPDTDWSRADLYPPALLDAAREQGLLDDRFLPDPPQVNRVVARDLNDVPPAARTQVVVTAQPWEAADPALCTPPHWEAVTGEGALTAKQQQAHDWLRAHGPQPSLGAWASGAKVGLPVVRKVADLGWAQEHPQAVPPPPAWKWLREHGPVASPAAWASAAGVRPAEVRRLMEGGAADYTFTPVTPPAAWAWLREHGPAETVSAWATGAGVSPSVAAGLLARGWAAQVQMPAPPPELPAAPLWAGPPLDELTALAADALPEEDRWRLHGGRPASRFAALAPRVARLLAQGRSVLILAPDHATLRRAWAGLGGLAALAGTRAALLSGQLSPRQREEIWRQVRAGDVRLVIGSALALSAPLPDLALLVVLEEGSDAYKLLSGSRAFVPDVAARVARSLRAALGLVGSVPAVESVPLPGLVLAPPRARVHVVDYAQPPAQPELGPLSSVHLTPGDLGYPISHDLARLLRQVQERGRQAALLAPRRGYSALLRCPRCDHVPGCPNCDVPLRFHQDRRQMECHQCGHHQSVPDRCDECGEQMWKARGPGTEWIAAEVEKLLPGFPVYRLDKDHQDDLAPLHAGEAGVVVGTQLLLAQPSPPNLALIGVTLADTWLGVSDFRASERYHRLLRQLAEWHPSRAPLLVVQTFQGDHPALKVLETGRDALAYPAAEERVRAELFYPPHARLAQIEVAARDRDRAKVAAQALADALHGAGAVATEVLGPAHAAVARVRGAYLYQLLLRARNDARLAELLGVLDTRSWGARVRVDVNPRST


Experiments:
PriA (D. radiodurans) = target: T1, PriA (D. radiodurans); assay: fluorescence anisotropy; 1 mM Mg2+, no ATP listed; apparent Kd (half-bound); 20 mM Tris-HCl pH 8, 15% glycerol, 50 mM NaCl, 1 mM MgCl2, 1 mM 2-mercaptoethanol, 0.1 g/L BSA, 1 nM DNA, 25 C; conditions: protein: recombinant, tags: N-terminal His6 removed by thrombin, leaving Gly-Ser-His before Met1
PriA (E. coli) = PriA (E. coli) (Escherichia coli K12, UniProt P17888 1-732); assay: as above; conditions: protein: recombinant
[1] = label: 3' fluorescein on S8 (nascent lagging strand), three-way fork without gap: S5[1-25]:S6[26-50] parental, S5[26-50]:S7 leading, S6[1-25]:S8 lagging, blunt arms
[2] = label: 3' fluorescein, single strand

Sequence of PriA (E. coli) (P17888 whole entry): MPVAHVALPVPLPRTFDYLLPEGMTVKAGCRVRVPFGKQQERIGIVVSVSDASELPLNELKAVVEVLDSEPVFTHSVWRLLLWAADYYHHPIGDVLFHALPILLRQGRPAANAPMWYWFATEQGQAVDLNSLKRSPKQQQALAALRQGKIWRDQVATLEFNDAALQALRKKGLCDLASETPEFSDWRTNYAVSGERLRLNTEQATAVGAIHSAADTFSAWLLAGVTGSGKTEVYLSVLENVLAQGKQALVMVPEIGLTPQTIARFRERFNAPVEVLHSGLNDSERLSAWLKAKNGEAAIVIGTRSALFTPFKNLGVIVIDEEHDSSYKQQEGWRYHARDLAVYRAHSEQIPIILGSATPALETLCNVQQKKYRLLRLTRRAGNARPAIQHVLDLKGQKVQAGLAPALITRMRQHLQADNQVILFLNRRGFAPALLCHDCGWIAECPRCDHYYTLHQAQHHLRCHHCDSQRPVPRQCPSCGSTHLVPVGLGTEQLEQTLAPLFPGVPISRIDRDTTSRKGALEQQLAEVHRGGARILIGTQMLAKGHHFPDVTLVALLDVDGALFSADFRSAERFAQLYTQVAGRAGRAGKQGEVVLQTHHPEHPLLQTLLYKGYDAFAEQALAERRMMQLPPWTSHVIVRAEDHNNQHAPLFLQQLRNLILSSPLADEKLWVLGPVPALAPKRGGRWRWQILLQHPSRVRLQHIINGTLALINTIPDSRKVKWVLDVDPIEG

Row | Binder | Kd (PriA (D. radiodurans); [1]) [nM] | Kd (PriA (E. coli); [1]) [nM] | Kd (PriA (D. radiodurans); [2]) [nM] | Kd (PriA (E. coli); [2]) [nM]
1 | fully-duplex fork DNA, 25 bp arms (structured_DNA) DNA 1: GTCGGATCCTCTAGACAGCTCCATGATCACTGGCACTGGTAGAATTCGGC DNA 2: AACGTCATAGACGATTACATTGCTACATGGAGCTGTCTAGAGGATCCGAC DNA 3: GCCGAATTCTACCAGTGCCAGTGAT DNA 4: TAGCAATGTAATCGTCTATGACGTT | 108 ± 1.7 | 52.1 ± 1 |  | 
2 | AAGCACAATTACCCACGC (ssDNA) [18-base mixed-sequence ssDNA] |  |  | 215 ± 17 | 129 ± 11.9
